The source of these data is paper PMC8516981.

For assay [1], the target named is α-synuclein (αS) fibrils (human) (UniProt P37840). In words: microfluidic diffusional sizing; in solution; DnaJB1 or Apg2 alone with αS fibrils (concentrations as monomer equivalents); 50 mM HEPES-KOH pH 7.5, 50 mM KCl, 5 mM MgCl2, 2 mM DTT.
Assay [2] has the same target. Briefly: microfluidic diffusional sizing; in solution; labelled Hsc70 with αS fibrils (concentrations as monomer equivalents); 50 mM HEPES-KOH pH 7.5, 50 mM KCl, 5 mM MgCl2, 2 mM DTT; in the presence of ATP.
Assay [3] shares this target. In words: microfluidic diffusional sizing; in solution; labelled Hsc70 with αS fibrils (concentrations as monomer equivalents); 50 mM HEPES-KOH pH 7.5, 50 mM KCl, 5 mM MgCl2, 2 mM DTT; in the presence of ATP and DnaJB1.

Sequence of heat shock cognate Hsc70 (HSPA8) (P11142 whole entry): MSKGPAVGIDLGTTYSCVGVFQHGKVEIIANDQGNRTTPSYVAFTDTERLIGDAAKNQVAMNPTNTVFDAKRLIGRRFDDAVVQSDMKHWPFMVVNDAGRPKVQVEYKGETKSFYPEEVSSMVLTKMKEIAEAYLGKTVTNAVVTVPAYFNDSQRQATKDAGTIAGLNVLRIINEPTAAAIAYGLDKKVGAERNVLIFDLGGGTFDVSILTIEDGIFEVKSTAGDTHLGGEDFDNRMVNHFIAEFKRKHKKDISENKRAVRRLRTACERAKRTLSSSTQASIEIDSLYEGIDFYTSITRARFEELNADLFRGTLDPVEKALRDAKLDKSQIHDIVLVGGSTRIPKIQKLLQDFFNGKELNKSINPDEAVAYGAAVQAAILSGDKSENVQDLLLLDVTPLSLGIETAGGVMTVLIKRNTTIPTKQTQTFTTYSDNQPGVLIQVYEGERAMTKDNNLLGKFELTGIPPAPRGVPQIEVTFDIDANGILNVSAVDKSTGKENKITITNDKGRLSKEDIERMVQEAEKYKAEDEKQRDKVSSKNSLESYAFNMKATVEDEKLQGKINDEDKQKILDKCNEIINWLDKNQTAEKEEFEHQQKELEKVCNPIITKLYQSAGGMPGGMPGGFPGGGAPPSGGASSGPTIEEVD
Sequence of DnaJB1 (Hsp40 class B J-protein) (P25685 whole entry): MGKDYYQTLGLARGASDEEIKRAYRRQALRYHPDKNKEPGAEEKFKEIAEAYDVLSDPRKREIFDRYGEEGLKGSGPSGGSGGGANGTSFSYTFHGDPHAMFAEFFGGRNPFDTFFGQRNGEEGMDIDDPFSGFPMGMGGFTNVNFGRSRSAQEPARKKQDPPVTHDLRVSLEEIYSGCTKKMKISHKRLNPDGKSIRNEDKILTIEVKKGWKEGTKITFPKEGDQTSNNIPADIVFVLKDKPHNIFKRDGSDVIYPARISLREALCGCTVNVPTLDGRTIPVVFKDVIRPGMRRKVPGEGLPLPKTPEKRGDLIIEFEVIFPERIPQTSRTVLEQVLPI

Usually Kd stands for the concentration at which binding is half-saturated. With “DnaJB1 (Hsp40 class B J-protein) (from UniProt P25685 1-340) (natural protein)”, in assay [1], the Kd amounted to 0.246 µM.

Turning to “heat shock cognate Hsc70 (HSPA8) (from UniProt P11142 1-646) (natural protein)”, in assay [2], the equilibrium dissociation constant (Kd) came to 0.139 µM and the stoichiometry N (αS monomer units per Hsc70 molecule) is 5.3. Moreover, in assay [3], the Kd is 0.0475 µM.
